The DeepSol protein solubility set

assay: soluble on expression in E. coli; label from the status in PepcDB or PDB records

Sequence | soluble on expression in E. coli
MAHHHHHHMIGELVLLIGDFHSPMRNLGLPDCFKDLLKTDKIKHVLCTGNVGCRENLELLKNIADSVHITKGDMDDEYDFPEDTSLTIGDFKISLIHGHQIIPWGDTNALLQWQKKYDSDIVISGHTHKNSIVRYEGKYFINPGSATGAFQPWLSQPTPSFILMAVAKSSIVVYVYEEKNGKTNVEMSEL | soluble
SLDICSKNPCHNGGLCEEISQEVRGDVFPSYTCTCLKGYAGNHCETKCVEPLGMENGNIANSQIAASSVRVTFLGLQHWVPELARLNRAGMVNAWTPSSNDDNPWIQVNLLRRMWVTGVVTQGASRLASHEYLKAFKVAYSLNGHEFDFIHDVNKKHKEFVGNWNKNAVHVNLFETPVEAQYVRLYPTSCHTACTLRFELLGCELNGCANPLGLKNNSIPDKQITASSSYKTWGLHLFSWNPSYARLDKQGNFNAWVAGSYGNDQWLQVDLGSSKEVTGIITQGARNFGSVQFVASYKVAYSNDSANWTEYQDPRTGSSKIFPGNWDNHSHKKNLFETPILARYVRILPVAWHNRIALRLELLGC | soluble
MAHHHHHHMKINLSFNKNKENKNRNKNGDTDIDNDTRNNKSYKENNPMTRNKIETIFSMSDDEETINYENTHNKIIQQKKENQLNDKIKEYIKEHEEPALTTHEKKEDKKERIDEKNNKKKIQYLGYKSNELTKLNNPKTDDSYDYPFEEKEIYDNLDEKERKKKTIEHNDKDGHEYYKKDHKNHKKYTRSHENDNEVNAYNKDCDVRNKTIDKKTYMKKYDKNIQDYEKKKKKSENSDDDVNRSYLCIDDIFKKKENIDGKKKSKYMEALINSAKRRELEKEFLIQKKQKIDTEKEEKVFVTSAYKKKLMDRELIKKDMDLEVEEKKVDKSSNYNLNLFLKNINAPSNYNRYNRR | soluble
MGEREGRVDSLLDTLYNLSEEKEAFFITQKMKKLFSVKLSKSKVILVAACLLLAGSGTAYAAHELTKQSVSVSINGKKKHIRTHANTVGDLLETLDIKTRDEDKITPAKQTKITADMDVVYEAAKPVKLTINGEEKTLWSTAKTVGALLDEQDVDVKEQDQIDPAIDTDISKDMKINIEPAFQVTVNDAGKQKKIWTTSTTVADFLKQQKMNIKDEDKIKPALDAKLTKGKADITITRIEKVTDVVEEKIAFDVKKQEDASLEKGKEKVVQKGKEGKLKKHFEVVKENGKEVSRELVKEETAEQSKDKVIAVGTKQSSPKFETVSASGDSKTVVSRSNESTGKVMTVSSTAYTASCSGCSGHTATGVNLKNNPNAKVIAVDPNVIPLGSKVHVEGYGYAIAADTGSAIKGNKIDVFFPEKSSAYRWGNKTVKIKILN | soluble
ASLIEDIDKKHLVLLRDGRTLIGFLRSIDQFANLVLHQTVERIHVGKKYGDIPRGIFVVRGENVVLLGEI | not soluble
MALITTGSKFLRALEQEGALAVYAPLEGGYEGRYLRRLRSKGYSALTYSARGLGDPAQFLMDIHGVRPPHLGKQTIGNEAAVGRVEYVLPLVGYPLQNLPANAKGLVLWLLEGHVLSPQELSYFVTLPQAEPRLKVVIEMGGDRGFSWQPLAAVAEAALEHHHHHH | not soluble
MSLSKTLSMLALLPFAAQVFAAPAEFWYSHGGATGSAIADLCRSFNAQREDGDRLHCIRQGSYEQTLQKTVAAYRAGIGPALVEIYDVATPDMLLGGATLPVEAIMAGHQRAYSDDTFLPALRRYYSDDHGALAAQPFAASTAVLYTHRNALAAAGISEPPATWEAFATALRALKKNGHACPVVSEFSPWIWLEQTSAAQGTEVAVRAAGTERYQFDKGAHLRLMNDLAQWTAEGLVVHEDSTRSGQQALAFATDDCAMLIDSTGAWNIVHSTLKSDIDVTALPIYANTQRRTNAPGGSSLWVMRGHAARDYRLVSEFLAFVLQPDNQLVFSARTGYLPVTQAAAARLQSAGREPSAVMVGLAALHDIDGQPSKPLRCGFITLMRLVWSQEMENALAGRQSVEHALRQTTLRANELLSLFQQMHQAQASNESDGATEGHHHHHH | soluble
MSLTKIAKVIVDVPLMQTDKPFSYKIPEALLSVITAGSRVHVPFGKGNRLLQGFVVSVDSGSAQHLKTIIDVLDVEPVLNQEQLELADQMRKTVFSYKISILKSMIPNLLNSNYDRLLKPKKGLSQEEKDLIFAGKKQINFSQLNQEIQTKSLSLIQAGKIDIEYLAKDRKTIKTQKCYDVNLEKLSHLLINKRAKKRQELKDYLANHPQSGPLSDLYRLFSREVVHYFIKEAVLNISQVEVNRTQSYFENIIQSDFLDLNPEQQTAVEQITAAIGSSNKPYLLEGITGSGKTEVYLHVIDQTLKLGKTAIVLVPEISLTPQMTSRFISRFGSQVAIMHSGLSDGEKFDEWRKMKSNQAKVVVGARSAIFSPLKNIGAIIIDEEHEATYKQESSPRYHAREVALLRAQYHQAVLVLGSATPSIESRARASRGVYNFLQLSQRANPQAHIPKVKIVDFRDYIGQQKVSNLTPVLLDKIKDRLIKKEQVVLMLNRRGYSSFIMCRDCGYVDNCPNCDISLTLHMDTKTMNCHYCGFLKGIPYNCPNCQSRQIRYYGTGTQKAYDELKQVLPEARILRMDVDTTKRKGAHEKILTKFGRHEADILLGTQMIAKGLDFPNVTLVGVLNADTSLNLPDFRSSERTFQLLTQVAGRAGRANKPGEVLIQTYNPNHYAIQLAREQDYEAFYRYEMRIRKALSYPPYYFTVGLTLSHKDEQEVIKKSYEIVTLIKEGLTDKIKILGPTPKPVARTHNLYHYQIIIKYRFEDQLEIVLNHILDLTQAKENKKLRLIIDHEPQSEGHHHHHH | soluble
MAIDNIKAYVHLSDADIEEIGRRLDQIKAEVTQSLGARDVAYIKRLIRTQRSLEAAGRFALLFAGNKKCWWLGTGLLSTAKILENLEIGHNVLHGQWDWMNDPEIHSTTWEWDIVCPSSQWMHSHNFVHHTYTNVLGMDNDVGYGILRVTRDRKWTPLHAFQPAVNTVLAAMFQWAVGYYDVELGRYLTKRADWNDTKDKFWETTNKAGRQLARDYVFYPALARKAFPQAVKANAVANLVRSVWAYSVIFCGHFPDEAETFTKEQFKNEDHNQWYLRQMLGSANFYGGKLLTIMSGNLNYQIEHHLFPDMPSNRLAEVGEKVRALCDEYDLPYNVDSFPAQLFKVQKTLLKLTLPNKYLVASPDNAPEVRSNRAFSQNPEIENQLAGGSNGSGLRTGLKLLKRLRPSIKDAILIYSGRKPRGNQQR | not soluble
MSLRSDLINALYDENQKYDVCGIISAEGKIYPLGSDTKVLSTIFELFSRPIINKIAEKHGYIVEEPKQQNHYPDFTLYKPSEPNKKIAIDIKTTYTNKENEKIKFTLGGYTSFIRNNTKNIVYPFDQYIAHWIIGYVYTRVATRKSSLKTYNINELNEIPKPYKGVKVFLQDKWVIAGDLAGSGNTTNIGSIHAHYKDFVEGKGIFDSEDEFLDYWRNYERTSQLRNDKYNNISEYRNWIYRGRK | soluble
QIVDCWETWSRCTKWSQGGTGTLWKSCNDRCKELGRKRGQCEEKPSRCPLSKKAWTCICY | soluble
MLQVRMLLRIPTVLRSQELIDKAFSRASRIEEPYFPDKIERIRKEVQDRISTIESISRSFLDRLVKKFPSINNLHPFYSSLIDLMFDIDQYKISLSKIDRTSQMIEQISGEHIRRLKAAKTVEDANRIMRSYYGRFASLVHEIDQDLLFLGKCRDYMKKIPDIDVNLRTYIIAGMPNVGKSSLLAALTTKKPEIAPYPFTTKSVIIGIAEHGYERIQFIDTPGILDRDFDEMNQIEKNAVLALRHIKGTVIFLFDYSDQSLYDPEMQEHLYQQIREHINPDIIRVQTKMDISREKREKIAISVNSEGGLDPLKAIIFGRADDDVRRLEHHHHHH | not soluble
MDIKNSPSSLNSPSSYNCSQSILPLEHGSIYIPSSYVDSHHEYPAMTFYSPAVMNYSIPSNVTNLEGGPGRQTTSPNVLWPTPGHLSPLVVHRQLSHLYAEPQKSPWCEARSLEHTLPVNRETLKRKVSGNRCASPVTGPGSKRDAHFCAVCSDYASGYHYGVWSCEGCKAFFKRSIQGHNDYICPATNQCTIDKNRRKSCQACRLRKCYEVGMVKCGSRRERCGYRLVRRQRSADEQLHCAGKAKRSGGHAPRVRELLLDALSPEQLVLTLLEAEPPHVLISRPSAPFTEASMMMSLTKLADKELVHMISWAKKIPGFVELSLFDQVRLLESCWMEVLMMGLMWRSIDHPGKLIFAPDLVLDRDEGKCVEGILEIFDMLLATTSRFRELKLQHKEYLCVKAMILLNSSMYPLVTATQDADSSRKLAHLLNAVTDALVWVIAKSGISSQQQSMRLANLLMLLSHVRHASNKGMEHLLNMKCKNVVPVYDLLLEMLNAHVLRGCKSSITGSECSPAEDSKSKEGSQNPQSQ | soluble
MTKAVVIGGGLAGLATTALLLREGYEVHLVEQNEHLGGRAGTFELDGFRWDTGPSWYLMPDAMSHFFKLCGTSIDDHLDLVPLEPAYRVIDDHGEFIDVTSDIDAMAELFESREPGAGAKLRTYIDSATQVYNLAIDGFLYTNFTNFIPYLSPGMLRLLPKLLASLSTSLKVKVNTQFRDTKLRQILSYPAVFLSSDPSHTPALYHLMSHTDLVQGVSYPRGGFTAFIKALISLIDDAVLHLGTPVSAITTQGRNATGVQVGSEFIEADIVISCADQHHTETQLLPASLCAKPETSWKNKQPGLSTVLVLAGVKGEHTLLFPPTGTKISAKFSTAPPQNSRLQNPSRSPRPPQQIPMPHPKATRTSSSWSQYPPMSPLVTGPLTEKNLTWWAGSQLEHHHHHH | not soluble
MGSDKIHHHHHHMTTNNASPEAGHIMQTRTVDLDGQVLRVGIRPGSGDLPPLLMFNGIGANLELVEPFVDALPDVEVIIFDIPGAGGSPAPLFPYRFSNLCVMADKLLSHLGYAGPVDTLGVSWGGALAQEFARLYPQRCRRLVLAATSPGVLMVPGSPSVLTKMIGIRRYTDAEYLRRVGGDIYGGAFRDDPSLLDVHGGHMRPPRGRGYLYQLLAAWGWSSLPWLRALKQRTLVLHGSDDPIVPLINAKILSGCIPDSALHVFHDDGHLFLLTAARESARVVGEFLREGR | not soluble
MSLTPDAQVATAQRDDQALISEGKDLYDVACITCHGVNLQGVEDRGPSLVGVGEGAVYFQVHSGRMPILRNEAQAERKAPRYTEAQTLAIAAYVAANGGGPGLVYNEDGTLAMEELRGENYDGQITSADVARGGDLFRLNCASCHNFTGRGGALSSGKYAPNLDAANEQEIYQAMLTGPQNMPKFSDRQLSADEKKDIIAFIKSTKEGHHHHHH | soluble
MSLKEAEVLKYEAFTSSPGKGNPAGVVLQGDDYTEDEMQIIAERAGYSETSFIRKSESADLELRYFTPGHEMNLCGHATVASLYALCEKGMLESGKTYSIQTKAGILPVKISEKDGRIHITLEQASPQFKPFTGDRKKLADALGITDEDFHEDLPIVFGSTGIWTAIVPLKSLEASKKMVPDNKQFPEVLVDLPKASVHPFTFETVHPDSDLHGRHFSSPYSGTIEDPVTGTASGVMGAYMKHYGNAEQHKFIIEQGQEIGKDGKVEIEMNEAGGHVKVNMTGTAVYSETRILKIEGGSHHHHHH | soluble
MSLDDSVFVGHLKDVTGATGFVGKLYGEGVNDALVWINAHGGIDGTRLDFESVDYAYEVPRAIALYKKWTSQNKMVALQGWGTGDTEALISFVAKDKIPVLSGSYSGHLTDPTGKNPKTQKPAPYNFFYGPSYSDACRALVQWAEGDWKAKGKEGKPKFIHAGDNHPYPNAPKEACADFATELGFEVLPPVVVSLKPGDFKAQCLTIKQSGANYVYVANLGPSVVSLVKSCKTVGTDAQYMANIWGGDSETQKTLGADGDGYVFVAANAFWGDDAPGLALVREIAGSETPRTHHYIRGVCSTFYMKEAMEWAKAHGGLTGESIRNAMYARKDWVPKGLEGVCIPSTWTPEDHRGMTKVFIYQMQNGSEIHKIAETDLPRRDDWLGYEGHHHHHH | not soluble
